Data taken from patent US20140322204A1.

Assays:
[1] = biological target: E1E2 of HCV genotype 3a isolate UKN3A13.6 (Hepatitis C virus genotype 3a); experiment: cell-based or functional assay
[2] = biological target: E1E2 of HCV genotype 5 isolate UKN5.15.11 (Hepatitis C virus genotype 5); experiment: cell-based or functional assay
[3] = biological target: H77 E1E2 mutant G418A (Hepatitis C virus genotype 1a strain H77) (UniProt P27958); experiment: GNA capture EIA of E1E2 from HEK 293T cells
[4] = biological target: H77 E1E2 mutant L413A (Hepatitis C virus genotype 1a strain H77) (UniProt P27958); experiment: GNA capture EIA of E1E2 from HEK 293T cells
[5] = biological target: H77 E1E2 mutant N415A (Hepatitis C virus genotype 1a strain H77) (UniProt P27958); experiment: GNA capture EIA of E1E2 from HEK 293T cells
[6] = biological target: H77 E1E2 mutant Q412A (Hepatitis C virus genotype 1a strain H77) (UniProt P27958); experiment: GNA capture EIA of E1E2 from HEK 293T cells
[7] = biological target: H77 E1E2 mutant W420A (Hepatitis C virus genotype 1a strain H77) (UniProt P27958); experiment: GNA capture EIA of E1E2 from HEK 293T cells
[8] = biological target: 412-423 branched peptide (UniProt P27958); experiment: antibody titration on the branched peptide (FIG. 10)

monoclonal antibody AP33 was tested, and the IC50 of HCVpp neutralisation (ug/ml (printed p.g/ml)) [1] was 22, the IC50 of HCVpp neutralisation (ug/ml (printed p.g/ml)) [2] was 0.6 and the reduction of binding compared to wild type [3] was > 75%. For the same substance, the reduction of binding compared to wild type [4] was > 75%, the reduction of binding compared to wild type [5] was > 75% and the enhancement of binding compared to wild type [6] was 50%. The reduction of binding compared to wild type [7] was > 75% and the fold lower concentration required to obtain 50% binding, against MAb 3/11 [8] was > 10 fold.
